# Assay results: US20240076386A1 (Pfizer, published 2024)
# B1: anti-E-selectin antibody 0158 chimera (antibody, human IgG1, kappa, V domains shown)
# VH: QVQLKESGPGLVQPSETLSLTCTVSGFSISTYNVHWLRQPPGKGLEWMGMMWSGGSPDYNSALKSRLSISRDTSKNQVFLKMNSLQSEDTTTYYCARWGGGFDYWGQGVMVTVSS
# VL: DIVLTQSPTTLSVTPGETVSLSCRASHSIGTNLHWYQQKTNESPRLLIKFTSQSISGIPSRFSASGSGTDFTLNINNVEFDDVSSYFCQQTQSWPLTFGSGTKLEIKR
# notes: rat VH/VL on effector-null human IgG1 and human kappa
# B2: optimized anti-E-selectin antibody 1282 (antibody, human IgG1, kappa, V domains shown)
# VH: EVQLVESGGGLVQPGGSLRLSCAASGYAIRSAYMHWVRQAPGKGLEWVARIDPANGNTIYVDSVEGRFTISADNAKNSAYLQMNSLRAEDTAVYYCAMDLYSTSEYWGQGTLVTVSS
# VL: DIQMTQSPSSLSASVGDRVTITCKTSQNIERYLNWYQQKPGKAPKLLIYAASSLQSGVPSRFSGSGSGTDFTLTISSLQPEDFATYFCLQDNAWPLTFGQGTKVEIKR
# notes: effector-null human IgG1, kappa
# B3: optimized anti-E-selectin antibody 1284 (antibody, human IgG1, kappa, V domains shown)
# VH: EVQLVESGGGLVQPGGSLRLSCAASGYAIRSAYMHWVRQAPGKGLEWVARIDPANGNTIYVESVEGRFTISADNAKNSAYLQMNSLRAEDTAVYYCAMDLYSTSEYWGQGTLVTVSS
# VL: DIQMTQSPSSLSASVGDRVTITCKTSQNIERYLNWYQQKPGKAPKLLIYAASSLQSGVPSRFSGSGSGTDFTLTISSLQPEDFATYFCLQDNAWPLTFGQGTKVEIKR
# notes: as for B2
# B4: optimized anti-E-selectin antibody 1448 (antibody, human IgG1, kappa, V domains shown)
# VH: EVQLVESGGGLVQPGGSLRLSCAASGYAIRSAYMHWVRQAPGKGLEWVARIDPANGNTIYVDSVKERFTISADNAKNSAYLQMNSLRAEDTAVYYCAMDLYSTSEYWGQGTLVTVSS
# VL: DIQMTQSPSSLSASVGDRVTITCKTSQNIERYLNWYQQKPGKAPKLLIYAASSLQSGVPSRFSGSGSGTDFTLTISSLQPEDFATYFCLQDNAWPLTFGQGTKVEIKR
# notes: as for B2
# B5: optimized anti-E-selectin antibody 1444 (antibody, human IgG1, kappa, V domains shown)
# VH: EVQLVESGGGLVQPGGSLRLSCAASGYAIRSAYMHWVRQAPGKGLEWVARIDPANGNTIYVDSVTGRFTISADNAKNSAYLQMNSLRAEDTAVYYCAMDLYSTSEYWGQGTLVTVSS
# VL: DIQMTQSPSSLSASVGDRVTITCKTSQNIERYLNWYQQKPGKAPKLLIYAASSLQSGVPSRFSGSGSGTDFTLTISSLQPEDFATYFCLQDNAWPLTFGQGTKVEIKR
# notes: as for B2
# B6: anti-E-selectin antibody 0159 chimera (antibody, human IgG1, kappa, V domains shown)
# VH: EVQLQQSGAELGKPGTSVKLSCKVSGYNIRSTYMHWVSQRPGKGLEWIGRIDPANGNTIYAEKFKRKATLTADTSSNTAYMQLSQLKSDDRAIYFCAMEVRVSFEYWGQGVMVTVSS
# VL: DIQMTQSPSFLSASVGDRVTINCKASQNINKYLDWYQQKLGEGPKLLIYYTNNLHTGIPSRFSGSGSGTDFTLTISSLQPEDVATYFCLQHDSGYTFGAGTKLELKR
# notes: as for B1
# B7: anti-E-selectin antibody 0170 chimera (antibody, human IgG1, kappa, V domains shown)
# VH: EVQLQQSGAELGKPGTSVKLSCKVSGYSIRSTYMHWVNQRPGKGLEWVGRIDPANGNTIYAERFKNKATLTADTSSNTAYMQLSQLKSDDTAIYFCAVEILGIFDYWGQGVMVTVSS
# VL: DIQMTQSPSFLSASVGDRVTINCKASQNIDKYLDWYQQKLGEAPKLLMYNTNSLHTGIPSRFSGSGSGTDFTLTISSLQPEDVATYFCLQHNSGYTFGAGTKLELKR
# notes: as for B1
# B8: anti-E-selectin antibody 0180 chimera (antibody, human IgG1, kappa, V domains shown)
# VH: EVQLQQSGAELGKPGTSVKLSCKVSGYKIRSSYMHWVNQRPGKGLEWIGRIDPANGNTIYGDKFKSKATLTSDTSSNTAYIQLSQLKSDDTAIYFCAIDIGTTFDYWGQGVMVTVSS
# VL: DIQMTQSPSFLSASVGDRVTINCKASQHINRYLNWYQQKLGEAPKLLIYDANNLQTGIPSRFSGSGSGTDFTLTISSLQPEDVATYFCLQHNSWPNTFGAGTKLELKR
# notes: as for B1
# B9: anti-E-selectin antibody 0164 chimera (antibody, human IgG1, kappa, V domains shown)
# VH: EVQLQQSGAEFGKPGTSVKLSCKVSGYNIRSSYMHWVNQRPGKGLEWIGRIDPANGNTIYAEKFKIKAILTADSSSNTAYMQLSQLKSDDTAIYFCAMDLYSTSEYWGQGVMVTVSS
# VL: DIQMTQSPSFLSASVGDRVTINCKTSQNINRYLNWYQQKLGEAPKLLIYNANSLQTGIPSRFSASGSGTDFTLTINSLQPEDVATYFCLQDNSWPLTFGSGTKLEIKR
# notes: as for B1
# Key:
# [1] = molecular target: T1, human E-selectin, cell-surface expressed (human, UniProt P16581 22-610); assay: cell-based or functional assay
# T1 sequence: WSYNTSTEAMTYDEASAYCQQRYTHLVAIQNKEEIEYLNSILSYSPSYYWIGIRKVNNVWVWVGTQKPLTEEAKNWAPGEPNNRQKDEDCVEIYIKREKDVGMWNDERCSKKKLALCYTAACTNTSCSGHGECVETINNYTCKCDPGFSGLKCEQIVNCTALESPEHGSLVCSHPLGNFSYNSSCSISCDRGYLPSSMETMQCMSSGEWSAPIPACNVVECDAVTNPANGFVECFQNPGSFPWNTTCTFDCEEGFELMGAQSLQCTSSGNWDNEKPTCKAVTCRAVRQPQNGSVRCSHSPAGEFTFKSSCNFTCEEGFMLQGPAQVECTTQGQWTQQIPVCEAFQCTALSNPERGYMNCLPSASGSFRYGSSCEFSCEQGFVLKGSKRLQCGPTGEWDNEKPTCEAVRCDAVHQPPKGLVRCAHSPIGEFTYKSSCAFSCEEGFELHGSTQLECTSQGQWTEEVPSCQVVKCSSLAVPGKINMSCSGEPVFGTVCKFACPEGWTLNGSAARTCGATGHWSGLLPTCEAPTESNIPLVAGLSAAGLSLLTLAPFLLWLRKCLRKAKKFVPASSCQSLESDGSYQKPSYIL
# [2] = molecular target: T2, cynomolgus monkey E-selectin, cell-surface expressed (cynomolgus monkey, UniProt P16581 22-610 (human entry)); assay: competition ELISA on CHO cells vs sialyl Lewis ligand-PAA-biotin/SA-HRP
# T2 construct: also called CHO-cynomolgus monkey E-selectin cells; cynomolgus monkey CHO-E
# T2 chain: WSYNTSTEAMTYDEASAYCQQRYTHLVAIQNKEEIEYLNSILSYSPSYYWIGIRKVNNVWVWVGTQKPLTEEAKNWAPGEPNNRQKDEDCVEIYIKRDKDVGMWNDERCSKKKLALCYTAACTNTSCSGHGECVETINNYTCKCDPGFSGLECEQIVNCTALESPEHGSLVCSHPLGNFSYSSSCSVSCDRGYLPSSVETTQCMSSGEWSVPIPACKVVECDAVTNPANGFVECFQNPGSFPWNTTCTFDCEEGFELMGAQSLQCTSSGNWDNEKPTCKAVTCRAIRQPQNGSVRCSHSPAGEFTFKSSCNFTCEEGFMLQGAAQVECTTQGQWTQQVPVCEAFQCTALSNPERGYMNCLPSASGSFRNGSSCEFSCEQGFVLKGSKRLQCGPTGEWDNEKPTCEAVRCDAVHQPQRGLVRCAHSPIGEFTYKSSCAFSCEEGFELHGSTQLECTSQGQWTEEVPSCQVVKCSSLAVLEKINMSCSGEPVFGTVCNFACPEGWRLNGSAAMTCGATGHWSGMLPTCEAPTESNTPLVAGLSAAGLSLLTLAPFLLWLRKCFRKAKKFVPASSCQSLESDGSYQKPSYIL
# Description: In a static ligand cellular adhesion assay, horse radish peroxidase (HRP) conjugated E-selectin ligand (sialyl Lewis antigen) and E-selectin antibodies compete for binding to human or cynomolgus E-selectin expressed on Chinese hamster ovary (CHO) cells. The ability of anti-E-selectin antibodies to neutralize ligand binding was assessed in a static neutralization assay using a competition enzyme-linked immunosorbent assay (ELISA) to evaluate the neutralization of the sialyl Lewis antigen to Chinese hamster ovary cells (CHO) engineered to express human or cynomolgus monkey E-selectin.
# CHO cells expressing E-selectin were seeded at 12,500 cells per well into a 96 well tissue culture plate and incubated at 37° C., 5% CO₂ for 48 hours to form a confluent monolayer. Plates were subsequently washed twice with 200 μL of calcium magnesium free PBS. Anti-E-selectin antibodies or an IgG1 isotype control (IgG control) were added to the assay in the presence of a small synthetic conjugate of biotinylated, sialyl Lewis A polyacrylamide (Carbosynth LLC, OS45446) or sialyl Lewis X polyacrylamide (Glycotech, 01-045) with streptavidin/horseradish peroxidase (100 μL total) and incubated at 37° C., 5% CO₂ for 2 hours. Plates were then washed twice with 200 μL of calcium and magnesium free PBS. Following the incubation, the cells were washed twice with 200 μL of wash buffer containing 2 mM of calcium chloride (50 mM TRIS [trisaminomethane], 150 mM sodium chloride; 0.05% polysorbate 20, pH 7.4; 2 mM calcium chloride). Signal was developed by adding 100 μL of 1-Step Ultra TMB substrate (Thermo Scientific, 34028) and incubating for 30 minutes at room temperature. Reactions were stopped using 2 M of sulfuric acid and absorbance was read at 450 nm (Spectramax M5e). Data were analyzed and graphed using GraphPad Prism software (Version 8.0.2).
# [3] = molecular target: T1, human E-selectin, cell-surface expressed; assay: cell-based or functional assay; remark: listed apart in the source
Binder,"static neutralization, HL-60 Cell adhesion CHO-Human E-selectin cells IC50 (nM) [1]",IC50 [2],"static neutralization of HL-60 cell adhesion, CHO-human E-selectin cells-IC50 [3]"
B1,> 50 % inhibition at 16.5 nM,–,–
B2,–,1.29 nM,3.4 nM
B3,–,1.91 nM,4.4 nM
B4,–,1.85 nM,6.2 nM
B5,–,2.65 nM,4.7 nM
B6,> 50 % inhibition at 49.4 nM,–,–
B7,> 50 % inhibition at 444 nM,–,–
B8,> 50 % inhibition at 444 nM,–,–
B9,> 50 % inhibition at 16.5 nM,2.25 nM,4.4 nM
